Patent US12139520B2 (priority 2020, dated 2024)
Bridge positions count the residues as written; N and C are the ends. Square brackets hold non-standard residues; d marks the D form. Ends that are not written are not given here. Hyp = O=C(O)[C@@H]1C[C@@H](O)CN1; Cit = NC(=O)NCCC[C@H](N)C(=O)O

T1: hAMY3R (human, UniProt P30988)
T1 sequence 1: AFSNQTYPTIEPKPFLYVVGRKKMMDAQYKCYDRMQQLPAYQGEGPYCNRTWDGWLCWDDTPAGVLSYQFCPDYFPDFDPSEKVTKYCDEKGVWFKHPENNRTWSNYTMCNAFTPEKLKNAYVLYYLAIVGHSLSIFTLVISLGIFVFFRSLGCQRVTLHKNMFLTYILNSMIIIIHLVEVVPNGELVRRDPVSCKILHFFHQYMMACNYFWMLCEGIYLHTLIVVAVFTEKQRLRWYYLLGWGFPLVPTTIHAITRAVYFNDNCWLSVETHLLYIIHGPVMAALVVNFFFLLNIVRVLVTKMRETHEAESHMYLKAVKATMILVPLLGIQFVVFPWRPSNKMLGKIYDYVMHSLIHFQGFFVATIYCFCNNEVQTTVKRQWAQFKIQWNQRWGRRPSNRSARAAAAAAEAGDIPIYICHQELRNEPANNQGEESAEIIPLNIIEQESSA
T1 sequence 2: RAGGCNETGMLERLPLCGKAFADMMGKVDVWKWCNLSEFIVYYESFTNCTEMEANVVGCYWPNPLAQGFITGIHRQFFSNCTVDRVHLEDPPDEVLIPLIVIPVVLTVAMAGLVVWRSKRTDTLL


Columns and labels:
hAMY3R = biological target: T1, hAMY3R; experiment: cell-based or functional assay
hAM1R = hAM1R (human, UniProt Q16602); experiment: cell-based or functional assay

| Binder | hAMY3R EC50 (cAMP) (hAMY3R) | hAM1R EC50 (cAMP) (hAM1R) |
| --- | --- | --- |
| KCNTSTCTVAWLADQITQFSDKDKANVSPPTEVGPNS[Hyp]-NH2 (disulfide 2-7 (inferred); ends not checked) [SEQ ID NO: 310] | 0.003 nM | > 5000 nM |
| GCRTGTCTVQWLAHQIYQFTDKDKDNVAPRTNVGPQG[Hyp]-NH2 (disulfide 2-7 (inferred); ends not checked) [SEQ ID NO: 323] | 0.014 nM | > 5000 nM |
| GCRFGTCTVQ[Cit]LAHQIYQFTDKDKDNVAPRSKVSPQG[Hyp]-NH2 (disulfide 2-7 (inferred); ends not checked) [SEQ ID NO: 305] | 0.085 nM | > 5000 nM |
| KCNTATCTVQWLAHQIYQFTDKDKDNAAPPTNVGSNG[Hyp]-NH2 (disulfide 2-7 (inferred); ends not checked) [SEQ ID NO: 315] | 0.012 nM | > 5000 nM |
| KCNTATCTVQWLAHAIYQFTDKDKDNVAPPTNVGSNG[Hyp]-NH2 (disulfide 2-7 (inferred); ends not checked) [SEQ ID NO: 308] | 0.014 nM | > 5000 nM |
| GCRTGTCTVQ[Cit]LAHQIYQFTDKDKDNVAPRSNIGPQG[Hyp]-NH2 (disulfide 2-7 (inferred); ends not checked) [SEQ ID NO: 303] | 0.103 nM | > 5000 nM |
| GCRTGTCTVQ[Cit]LAHQIYQFTDKDKDNVAPRSNVSPNG[Hyp]-NH2 (disulfide 2-7 (inferred); ends not checked) [SEQ ID NO: 304] | 0.139 nM | > 5000 nM |
| KCNTSTCTVAWLADQITQFSNKDKAQVSPPTEVGPNS[Hyp]-NH2 (disulfide 2-7 (inferred); ends not checked) [SEQ ID NO: 306] | 0.003 nM | > 5000 nM |
| RCNASTCTVNWLADQITQFSNKDKAQVSPPTEVGPNS[Hyp]-NH2 (disulfide 2-7 (inferred); ends not checked) [SEQ ID NO: 307] | 0.01 nM | > 5000 nM |
| GCRTGTCTVQ[Cit]LAHQIYQFTDKDKDNVAPRTKIGPQG[Hyp]-NH2 (disulfide 2-7 (inferred); ends not checked) [SEQ ID NO: 301] | 0.138 nM | > 5000 nM |
| KCNTATCTVQWLAHQIYQFTDKAKDNVAPPTNVGSNG[Hyp]-NH2 (disulfide 2-7 (inferred); ends not checked) [SEQ ID NO: 320] | 0.009 nM | > 5000 nM |
| KCNTATCTVQRLAHQIYQFTDKDKDNVAPTNVGSNG[Hyp]-NH2 (disulfide 2-7 (inferred); ends not checked) [SEQ ID NO: 31] | 0.008 nM | > 5000 nM |

More lines, now with the values ahead:

| hAMY3R EC50 (cAMP) (hAMY3R) | hAM1R EC50 (cAMP) (hAM1R) | Binder |
| --- | --- | --- |
| 0.004 nM | > 5000 nM | KCNTATCTVQWLAHQIYQFTKDKDNVAPPTNVGSNG[Hyp]-NH2 (disulfide 2-7 (inferred); ends not checked) [SEQ ID NO: 317] |
| 0.009 nM | > 5000 nM | KCNTATCTVQWLAHQIYQFTDKDKDNVPPTNVGSNG[Hyp]-NH2 (disulfide 2-7 (inferred); ends not checked) [SEQ ID NO: 318] |
| 0.317 nM | > 5000 nM | KCNTATCTVQWLAEQIYQFTDKDKDNVAPPYNEGSNG[Hyp]-NH2 (disulfide 2-7 (inferred); ends not checked) [SEQ ID NO: 321] |
| 0.004 nM | > 5000 nM | KCNTATCTVQWLAHQIYQFADKDKDNVAPPTNVGSNG[Hyp]-NH2 (disulfide 2-7 (inferred); ends not checked) [SEQ ID NO: 313] |
| 0.014 nM | 1390 nM | GCRFGTCTVQWLAHQIYQFTDKDKDNVAPRTKVGPQG[Hyp]-NH2 (disulfide 2-7 (inferred); ends not checked) [SEQ ID NO: 322] |
| 0.06 nM | > 5000 nM | GCRFGTCTVQWLANFLYQFTDKDKDNVAPRTNVGPQGY [SEQ ID NO: 311] |
| 0.012 nM | > 5000 nM | KCNTATCTVQWLAHQIYQFTDKDKDNVAPATNVGSNG[Hyp]-NH2 (disulfide 2-7 (inferred); ends not checked) [SEQ ID NO: 316] |
| 0.025 nM | > 5000 nM | KCNTATCTVQWLAHQIAQFTDKDKDNVAPPTNVGSNG[Hyp]-NH2 (disulfide 2-7 (inferred); ends not checked) [SEQ ID NO: 309] |
| 0.071 nM | 4330 nM | GCRTGTCTVQ[Cit]LAHQIYQFTDKDKDNVAPRTNVSPNG[Hyp]-NH2 (disulfide 2-7 (inferred); ends not checked) [SEQ ID NO: 302] |
| 0.028 nM | > 5000 nM | KCNTATCTVQWLAHQIYQFTDKDKDAVAPPTNVGSNG[Hyp]-NH2 (disulfide 2-7 (inferred); ends not checked) [SEQ ID NO: 324] |
| 0.012 nM | > 5000 nM | KCNTATCTVQWLAHQIYQFTDKDKDNVAPRTKVGSNG[Hyp]-NH2 (disulfide 2-7 (inferred); ends not checked) [SEQ ID NO: 312] |
| 0.018 nM | > 5000 nM | KCNTATCTVQWLAHQIYQFTDKDKDNVAPTNVGSNG[Hyp]-NH2 (disulfide 2-7 (inferred); ends not checked) [SEQ ID NO: 319] |
| 0.008 nM | > 5000 nM | KCNTATCTVQWLAHQIYQFTDKDKANVAPPTNVGSNG[Hyp]-NH2 (disulfide 2-7 (inferred); ends not checked) [SEQ ID NO: 314] |
| 0.008 nM | > 5000 nM | RCQTSTCTVARLAEQIAQYTDKDKDQVAPPTNVGSNS[Hyp]-NH2 (disulfide 2-7 (inferred); ends not checked) [SEQ ID NO: 32] |
